# Experimental data from patent publication US20230227537A1 (VIB VZW, published 2023).
# How the values were obtained:
# [1] = target: T1, SARS-CoV-2 RBD protein Avi-tag biotinylated (AcroBiosystems SPD-C82E9) (SARS-CoV-2, UniProt P0DTC2 330-518)
# [2] = target: T2, Mouse IgG1 Fc fused SARS-CoV-2 RBD (Sino Biological) (SARS-CoV-2; mouse, UniProt P0DTC2 330-518)
# [3] = target: T1, SARS-CoV-2 RBD protein Avi-tag …; remark: listed apart in the source
# [4] = target: WT SARS-CoV-2 RBD displayed on Saccharomyces cerevisiae (SARS-CoV-2, UniProt P0DTC2 331-518)
# [5] = target: SARS-CoV-2 spike, full length, on cells or on pseudotyped/authentic virus (SARS-CoV-2, UniProt P0DTC2 14-1273); assay: cell-based or functional assay
# [6] = target: T2, Mouse IgG1 Fc fused SARS-CoV-2 RBD …; assay: BLI, immobilized RBD-mFc
binder,measurement,setting,value
PB9677 hIgG4 FALA (Fc fusion) VHH: DVQLVESGGGLVQPGGSLRLSCAASGRTFSEYAMGWFRQAPGKEREFVATISWSGGATYYTDSVKGRFTISRDNAKNTVYLQMNSLRPEDTAVYYCAAAGLGTVVSEWDYDYDYWGQGTLVTVSS,IC50 (read off the curve),[1],~0.02 µg/mL
VHH72_h1(S56A) (VHH) VHH: EVQLVESGGGLVQPGGSLRLSCAASGRTFSEYAMGWFRQAPGKEREFVATISWSGGATYYTDSVKGRFTISRDNAKNTVYLQMNSLRPEDTAVYYCAAAGLGTVVSEWDYDYDYWGQGTLVTVSS,Kd,[2],5.26 nM
same,fold better competition than VHH72-wt and VHH72_h1,[2],7 fold
same,fold improvement of KD against VHH72 h1,[2],> 6 fold
same,Kd,[3],3.09 nM
same,fold improvement of KD against VHH72 h1,[3],3 fold
same,koff,[3],0.00069 s⁻¹
same,EC50 (read off the curve),[4],~0.3 µg/mL
"D72-55: VHH72_h1_E1D_S56A-(G4S)3-VHH72_h3_S56A-GS-hIgG1hinge_EPKSCdel-hIgG1Fc_LALAPG_Kdel (Fc fusion, Tetravalent; ExpiCHO) DVQLVESGGGLVQPGGSLRLSCAASGRTFSEYAMGWFRQAPGKEREFVATISWSGGATYYTDSVKGRFTISRDNAKNTVYLQMNSLRPEDTAVYYCAAAGLGTVVSEWDYDYDYWGQGTLVTVSSGGGGSGGGGSGGGGSDVQLVESGGGLVQPGGSLRLSCAASGRTFSEYAMGWFRQAPGKEREFVATISWSGGATYYTDSVKGRFTISRDNAKNTVYLQMNSLRPEDTAVYYCAAAGLGTVVSEWDYDYDYWGQGTLVTVSSGSDKTHTCPPCPAPEAAGGPSVFLFPPKPKDTLMISRTPEVTCVVVDVSHEDPEVKFNWYVDGVEVHNAKTKPREEQYNSTYRVVSVLTVLHQDWLNGKEYKCKVSNKALGAPIEKTISKAKGQPREPQVYTLPPSRDELTKNQVSLTCLVKGFYPSDIAVEWESNGQPENNYKTTPPVLDSDGSFFLYSKLTVDKSRWQQGNVFSCSVMHEALHNHYTQKSLSLSPG","PRNT50, authentic SARS-CoV-2",[5],0.02 µg/mL
same,fold lower PRNT50 than the parental construct,[5],50 fold
same,fold higher affinity than its bivalent counterpart,[6],> 100 fold
